Experimental data reported in patent US20170269069.

B1: recombinant USP39 (enzyme, UniProt Q3TIX9 1-564, looked up, species assumed)
Ubiquitin carboxyl-terminal hydrolase 39: MSSRSKRQSHGSTRGKRESESRGSSGRIKKERDREKEPEAASSRGSPVRVKREAEPAAREVPAPALPVVRVKREREADEDSEPEREVRAKNGRVDSEDRRSRHCPYLDTINRSVLDFDFEKLCSISLSHINAYACLVCGKYFQGRGLKSHAYIHSVQFSHHVFLNLHTLKFYCLPDNYEIIDSSLEDITYVLKPTFTKQQIANLDKQAKLSRAYDGTTYLPGIVGLNNIKANDYANAVLQALSNVPPLRNYFLEEDNYKNIKRPPGDIMFLLVQRFGELMRKLWNPRNFKAHVSPHEMLQAVVLCSKKTFQITKQGDGVDFLSWFLNALHSALGGTKKKKKTIVNDVFQGSMRIFTKKLPHPDLPAEEKEQLLHNDEYQETMVESTFMYLTLDLPTAPLYKDEKEQLIIPQVPLFNILAKFNGITEKEYKTYKENFLKRFQLTKLPPYLIFCIKRFTKNNFFVEKNPTIVNFPITNVDLREYLSEEVQAVHKNTTYDLIANIVHDGKPSEGSYRIHVLHHGTGKWYELQDLQVTDILPQMITLSEAYIQIWKRRDNDETNQQGA
modifications: His tag
B2: recombinant DIM1 (enzyme, UniProt P83877 1-142, looked up, species assumed)
Thioredoxin-like protein 4A: MSYMLPHLHNGWQVDQAILSEEDRVVVIRFGHDWDPTCMKMDEVLYSIAEKVKNFAVIYLVDITEVPDFNKMYELYDPCTVMFFFRNKHIMIDLGTGNNNKINWAMEDKQEMVDIIETVYRGARKGRGLVVSPKDYSTKYRY
modifications: His tag

Test system: recombinant histone H3, wild type

Protein	H3NT protease activity (in vitro H3NT cleavage assay, Western blot with the H3CT antibody)
B1	only rMMP-9 possessed H3NT protease activity
B2	only rMMP-9 possessed H3NT protease activity
